Measurements published in publication PMC3781045.

Target: T1, rZur (ZurPA, Np20) (Pseudomonas aeruginosa PAO1?) (UniProt Q9HT74)
T1 sequence: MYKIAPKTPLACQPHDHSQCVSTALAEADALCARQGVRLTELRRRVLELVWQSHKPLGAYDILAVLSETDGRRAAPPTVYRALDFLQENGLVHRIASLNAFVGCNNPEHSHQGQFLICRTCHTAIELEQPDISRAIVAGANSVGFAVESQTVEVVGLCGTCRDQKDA
Test: EMSA
Settings: 10 mM Tris-HCl pH 8.0, 40 mM KCl, 10 mM MgCl2, 1 mM DTT, 5% glycerol, 1 uM ZnCl2, 0.5 ug salmon sperm DNA; room temperature 30 min; gel at 4 C

Q: With “CGGCGAAGCCAGCAGGAACAGGGCGAAGCAGGCGGACAGCAGGGCAAAGGGACGCAGGGTCACGGCGGCACTCACATGAAAGGTGGTTAGCGGGTAATATAATAACGTCTCTACCCTCGAGCGTCGCAGCCCATGTACAAGATTGCGCCCAAGACCCCGCTGGCCTGCCAGCCCCATGACCACAGCCAGTGCGTCAGCA (double strand) [znuA promoter fragment]” as the sequence, how does the binding read?
A: binds
